Experiment [1] deals with cynomolgus LAG3 on activated CD4+ and CD8+ cynomolgus T cells (cynomolgus). Kind of experiment: FACS, stimulated cynomolgus CD4+ T cells, donor 1.
The target of experiment [2] is HEK293-hLAG3 and HEK293-mfLAG3 cells. Kind of experiment: cell binding assay of Table 12, LAG3-expressing HEK293 cells against parental HEK293 cells.

This is an account of results in US20170101472A1.

Regarding hIgG4 isotype control (antibody), the Ratio of MFI (11 nM/0 nM) in experiment [1] worked out at 1.
In the case of “H4H isotype control and the H4sH isotype control”, the ratio of binding above the HEK293 parental cells in experiment [2] was 0.7 to 1.1 fold.
